The values that follow come from patent publication US12492252 (SHANDONG BOAN BIOTECHNOLOGY, dated 2025).

The target in experiment [1] is T1, human GPC3 on cells (HepG2 cells expressing full length human GPC3; GPC3-transfected HEK293T cells) (human, UniProt P51654 25-554).
T1 construct: whole, on cells; also called GPC3-expressing HepG2 tumor cells
In words: flow cytometry on HepG2 cells. (A flow cytometer gives signals particle by particle.)

For experiment [2], the target named is T2, full length human GPC3 His (human, UniProt P51654 25-559, limits assumed).
T2 construct: also called full length human GPC3 protein; not shown: His tag
Nature of the experiment: SPR (Biacore T200), full length human GPC3 His immobilised, IgG1 in solution. Background: SPR reads the build-up and loss of mass on a sensor chip optically.

In experiment [3] the target is T3, C-terminal fragment of the full length human GPC3 protein (human, UniProt P51654 359-554).
T3 construct: domain: C-terminal subunit (C-terminal fragment); also called C-terminal of GPC3; 30-kDa C-terminal subunit
T3 sequence (looked up): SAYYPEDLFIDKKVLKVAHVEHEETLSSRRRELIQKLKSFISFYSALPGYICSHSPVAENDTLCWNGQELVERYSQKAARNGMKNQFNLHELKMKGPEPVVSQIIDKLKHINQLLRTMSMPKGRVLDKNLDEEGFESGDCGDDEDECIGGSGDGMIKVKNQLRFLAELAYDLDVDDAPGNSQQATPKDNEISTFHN
Nature of the experiment: ELISA. A general note: In an ELISA, binding on a coated surface is turned into a signal by an enzyme label.

The next experiment concerns the target T4, human GPC3 protein (human, UniProt P51654 25-559).
T4 construct: also called GPC3 antigen; human GPC3 proteins
Nature of the experiment: screening of recombinantly expressed rabbit clones (before the change to human constant regions).

B1: anti-human GPC3 IgG1 antibody clone 49 (antibody, V domains shown)
VH: CQSVEESGGRLVTPGTPLTLTCTVSGFSLSTYWMTWVRQAPGKGLEWIGIINPSGSAYYASWAKGRFTISKTSSATVDLKMTSLTAADTATYFCAGGGGMDPWGPGTLVTVSS
VL: DPVLTQTPSSVSAAVGGTVSISCQSSQSIVKNYLSWFQQKPGQPPKRLIYKASTLPSGVPSRFKGSGSGTEFTLTISDLECDDAATYYCAASYSDNIYVFGGGTEVVVKR
Regarding B1, in experiment [1], the EC50 (usually the concentration giving half of the maximal effect) was 0.012 nM and the “HepG2 Cell binding (Fold ratio)” value turned out to be 115 fold. In experiment [2], binding was characterised by a dissociation constant (Kd) of 0.9 nM, the RuMax was 1.7 and the koff (usually a measure of how fast the partners let go of each other) amounted to 0.0017 s⁻¹.

B2: anti-human GPC3 IgG1 antibody clone 40 (antibody, V domains shown)
VH: CQSVEESGGRLVTPGTPLTLTCTVSGFSLSTYWMTWVRQAPGKGLEWIGIISPAGSAYYASWAKGRFTISKTSSATVDLKMTSLTTADTATYFCAGGGGMDPWGPGTLVTVSS
VL: DPVLTQTPSSVSAAVGGTVSISCQSSQSIVKNYLSWFQQKPGQPPKRLIYKASTLPSGVPSRFKGSGSGTEFTLTISDLECDDAATYYCAASYSDNIYVFGGGTEVVVKR
notes: also called parental clone 40; chimeric anti-GPC3 clone 40
Take B2: in experiment [1], the EC50 was 0.013 nM and the “HepG2 Cell binding (Fold ratio)” value turned out to be 104 fold. Besides, in experiment [2], the Kd (usually the concentration at which binding is half-saturated) was 0.6 nM, the RuMax stood at 2.4 and the koff turned out to be 0.0018 s⁻¹.

B3: anti-human GPC3 IgG1 antibody clone 41 (antibody, V domains shown)
VH: CQSVEESGGRLVTPGTALTLTCTVSGFSLSTYWMTWVRQAPGKGLEWIGIINPGGSAYYASWAKGRFTISKASSATVDLKMTSLTAADTATYFCAGGGGMDPWGPGTLVTVSS
VL: DPVLTQTPSSVSAAVGGTVSISCQSSQSIIKNYLSWFQHKPGQPPKRLIYRASTLPSGVPSRFEGSGSGTEFTLTINDLECDDAATYYCAASYSDNIYVFGGGTEVVVKR
In the case of B3, in experiment [1], the EC50 is 0.014 nM and the “HepG2 Cell binding (Fold ratio)” value was 116 fold. In experiment [2], this molecule displayed a Kd of 1.3 nM, a RuMax of 1.49 and a koff of 0.0032 s⁻¹.

B4: anti-human GPC3 IgG1 antibody clone 22 (antibody, V domains shown)
VH: CQSVEESGGRLVTPGTPLTLTCTVSGFSLSTYWMTWVRQAPGKGLEWIGIINPTGRAYYASWAKGRFTISKTSSATVDLKMTSLTAADTATYFCAGGGGMDPWGPGTLVTVSS
VL: DPVLTQTPSSVSAAVGGTVTINCQSSQSVYSNYLSWFQKKPGQPPKRLIYKASTLVSGVPSRFVGSGSGTEFTLTISDLECDDAATYYCAASYSGNIYVFGGGTEVVVKR
Regarding B4, in experiment [1], it took 0.013 nM to reach a half-maximal effect (EC50) and the “HepG2 Cell binding (Fold ratio)” value was 121 fold. In experiment [2], this molecule displayed a Kd of 1.6 nM, a RuMax of 2.9 and a koff of 0.00052 s⁻¹.

B5: anti-human GPC3 IgG1 antibody clone 121 (antibody, V domains shown)
VH: CQSVEESGGRLVTPGTPLTLTCTVSGFSLSTYWMTWVRQAPGKGLEWIGIINPAGSAYYASWAKGRFTISKTSSATVDLKMTSLTAVDTATYFCAGGGGMDPWGPGTLVTVSS
VL: DPVLTQTPSSVSAAVGGTVTISCQSSQNIIKDYLSWFQQKPGQPPKRLIYKTSTLPSGVPSRFKGSGSGTEFTLTISDLECDDAATYYCAASYSGNIYVFGGGTEVVVKR
Regarding B5, in experiment [1], a half-maximal response (EC50) required 0.0061 nM and the “HepG2 Cell binding (Fold ratio)” value was 74.6 fold. In experiment [2], this molecule gave a Kd of 0.5 nM, a RuMax of 2 and a koff of 0.0015 s⁻¹.

B6: anti-human GPC3 IgG1 antibody clone 8 (antibody, V domains shown)
VH: CQSVEESGGRLVTPGTALTLTCTVSGFSLSTYWMTWVRQAPGKGLEWIGIINPGGSAYYASWAKGRFTISKTSSATVDLKMTSLTAADTATYFCAGGGGMDPWGPGTLVTVSS
VL: DPVLTQTPSSVSAAVGGTVSISCQSSQSIIKNYLSWFQHKPGQPPKRLIYRASTLPSGVPSRFEGSGSGTEFTLTISDLECDDAATYYCAASYSDNIYVFGGGTEVVVKR
On to B6, for which, in experiment [1], the EC50 was 0.012 nM and the “HepG2 Cell binding (Fold ratio)” value was determined as 79.5 fold. Moreover, in experiment [2], the Kd came out at 0.1 nM, the RuMax is 3.7 and the koff was 0.00042 s⁻¹.

B7: anti-human GPC3 IgG1 antibody clone 12 (antibody, V domains shown)
VH: CQSVEESGGRLVTPGTPLTLTCTVSGFSLSTYWMTWVRQAPGKGLEWIGIINPSGSAFYASWAKGRFTISKTSSATVDLKMTSLTAADTATYFCAGGGGMDPWGPGTLVTVSS
VL: DPVLTQTPSSVSAAVGGTVSISCQSSQSIVKNYLSWFQQKPGQPPKRLIYKASTLPSGVPSRFKGSGSGTEFTLTISDLECDDAATYYCAASYSDNIYVFGGGTEVVVKR
For B7, in experiment [1], the EC50 was 0.014 nM and the “HepG2 Cell binding (Fold ratio)” value came to 125 fold. In experiment [2], this molecule returned a Kd of 0.6 nM, a RuMax of 1.4 and a koff of 0.0016 s⁻¹.

B8: anti-human GPC3 IgG1 antibody clone 2 (antibody, V domains shown)
VH: CQSVEESGGRLVTPGTPLTLTCTVSGFSLSTYNMGWIRQAPGEGLEYIGTISSSTGNTYYATWAKGRFTISKTSSTTVDLKITNLTTEDTATYFCVRVNNMGDIWGPGTLVTVSL
VL: AIVMTQTPSSKSVAVGDTVTINCQASESVYKDNRLAWFQQKPGQAPKLLIYLASTLASGVPSRFKGSGSGTEFTLTISDVVCDDAATYYCGGYKDSLFDGFPFGGGTEVVVKR
On to B8, for which, in experiment [1], the EC50 was determined as 0.0076 nM and the “HepG2 Cell binding (Fold ratio)” value was 694 fold. In addition, in experiment [2], the Kd is approximately 0.49 nM, the RuMax came out at 2 and the koff worked out at 0.00039 s⁻¹.

B9: anti-human GPC3 IgG1 antibody clone 5 (antibody, V domains shown)
VH: CQSVEESGGRLVTPGTPLTLTCTVSGFSLSTYNMGWVRQAPGEGLEYIGTISSSTGNTYYATWAKGRFTISKTSSTTVDLKITNLTTEDTATYFCVRVNNMGDIWGPGTLVTVSL
VL: AIVMTQTPSSKSVAVGDTVTINCQASESVYKDNRLAWFQQKPGQPPKLLIYLASTLASGVPSRFKGSGSGTEFTLTISDVVCDDAATYYCGGYKDSLFDGFPFGGGTEVVVKR
On to B9, for which the binding result (in experiment [3]; with human GPC3 protein) was “binds” each time.

B10: anti-human GPC3 IgG1 antibody clone 74 (antibody, V domains shown)
VH: QCQSVEESGGRLVTPGTPLTLTYTVSGFSLNNYDMSWVRQAPGKGLQYIGWINSGGTAYYASWAKGRFTISKTSSTTVDLKMTSPTTEDTATYFCARHRYGYYGDIWGPGTLVTVSL
VL: DPVLTQTPSSVSAAVGGTVTINCQSSQNVYNNNRLAWYQQKLGQPPKLLIYFASKLASGVPSRFSGSGSGTQFTLTISGVQCDDAATYYCAGGYNTIVDNGFGGGTEVVVKR
B10: in experiment [1], the EC50 was determined as 0.0042 nM and the “HepG2 Cell binding (Fold ratio)” value was 143 fold. In experiment [2], this molecule gave a Kd of 0.02 nM, a RuMax of 24.3 and a koff of 0.00034 s⁻¹.

B11: anti-human GPC3 IgG1 antibody clone 122 (antibody)
heavy: not shown
light: DPVLTQTPSSVSAAVGGTVTINCQSSQNVYNNNRLAWYQQKPGQPPKLLIYFASKLASGVPSRFKGNGSGTQFTLTISGVQCDDAATYYCAGGYNSIVDNGFGGGTEVVVERTVAAPSVFIFPPSDEQLKSGTASVVCLLNNFYPREAKVQWKVDNALQSGNSQESVTEQDSKDSTYSLSSTLTLSKADYEKHKVYACEVTHQGLSSPVTKSFNRGECTS
B11: in experiment [1], the EC50 came out at 0.0053 nM and the “HepG2 Cell binding (Fold ratio)” value was found to be 129 fold. In experiment [2], this molecule showed a Kd of 0.2 nM, a RuMax of 17.3 and an off-rate (koff) of 0.0018 s⁻¹.

B12: anti-human GPC3 IgG1 antibody clone 182 (antibody)
heavy: not shown
light: DPVLTQTPSSVSAAVGGTVTINCQSSQNVYNNNRLAWYQQKPGQPPKLLIYFASKLASGVPSRFKGNGSGTQFTLTISGVQCDDAATYYCAGGYNSIVDNGFGAGTEVVVKRTVAAPSVFIFPPSDEQLKSGTASVVCLLNNFYPREAKVQWKVDNALQSGNSQESVTEQDSKDSTYSLSSTLTLSKADYEKHKVYACEVTHQGLSSPVTKSFNRGECTS
On to B12, for which, in experiment [2], the Kd is 0.02 nM, the RuMax was 24.3 and the koff worked out at 0.0019 s⁻¹.

B13: anti-human GPC3 IgG1 antibody clone 17 (antibody, V domains shown)
VH: CQSVEESGGRLVTPGTPLTLTCTVSGFSLSTYDMSWVRQAPGKGLEYIGWINSGGSPYYARWAKGRFTISKTSSTTVDLKMTSPTTEDTATYFCARHRSGYYGDIWGPGTLVTVSL
VL: DPVLTQTPSSVSAAVGDTVSINCQSSQNVYKNRLAWYQQKPGQPPKLLIYGASTLASGVPSRFKGSGSGTQFTLTISDLECDDAATYYCAGGYSTIVDNTFGGGTEVVVKR
Consider B13, for which, in experiment [1], the EC50 turned out to be 0.043 nM and the “HepG2 Cell binding (Fold ratio)” value is 39.9 fold. In experiment [2], this molecule registered a Kd of 0.2 nM, a RuMax of 10.7 and a koff of 0.0037 s⁻¹.
